Reference: the DeepSol protein solubility set

Test: soluble on expression in E. coli; label from the status in PepcDB or PDB records

Sequence | soluble on expression in E. coli
MSLDAITVDLNYDKNNVAVITPVWSQEWSVANVLGGWVCRSNRNENEGACEETHLVWWYAFGAYSKIRLRFREQISHAEITLILLGSVRDACYTGVINMNAAACQWGRSLKLRIPSEELAKIPTSGTWKATLVLDYLQWGGDDPLGTSTTDITLNVTDHFAENAAIYFPQFGTATPRVDLNLHRMNASQMSGRANLDMCLYDGGVKARSLQMKIEGSNKSGTGFQVIKSDSADTIDYAVSMNYGGRSIPVTRGVEFSLDNVDKAATRPVVLPGQRQAVRCVPVPLTLTTQPFNIREKRSGEYQGTLTVTMLMGTQTPEGHHHHHH | not soluble
ADDPIRMYFEPGHYTVMENCGEFEVRVVRRGDISTYASVEYETQDGTASAGTDFVGRKGLLSFPPGVDEQRFRIEVIDDDVFEEDECFYIRLFNPSEGVKLAVPMIATVMILDDDHAGIFAFTDSVFEITESVGRFE | soluble
MGHPETTKFHHLSTKVTISVPEEECYGSTNRTSFNGEDIEEVLEAILKSGMKLKMEKSNFGHAKIKFLGYIVLEEGIQTDPKTIKAIAKFPQPENVTDVRKFIGFALY | not soluble
MSLTQRIDFQTDPSRYRHWRVAYDGEIANLYMDVDEQGGLFPGYELKLNSYDLGVDIELADIVQRMRFEHPEVKVVVMQSGKDRVFCAGANIRMLGGASHAHKVNFCKFTNETRNTYEAAEADSGQKYIAAVKGACAGGGYELALACNYIMLTNDSSSSVALPEVPLLAVLPGTGGLTRVTDKRKVRRDLADVFCSVEEGVRGQRAVDWRLVDEIAPNSKFDEVVQERAREFASASVKPSGLTGIALTPLDRRFAEDGSVTYSTVEVVVEREAGRATLTISGPTDAAPDTVDALQAQGAEAWILRAARELDDAILHLRLNERRIGTLVIQTQGDGAAVAAHEALLLENRDHWLANEILQHWKRVLKRVDMTSRSLVAIVEHGSCFAGPLAELLWAVDRSYMMLEEGHHHHHH | not soluble
MAHHHHHHMPSSPFPTLPTRATQHHHHCSHTRVHQICPAVPSLSALSNILTVSAMSAKTAAAPSERSFVDRFVRSHAGAATAAGILEIGFFHPFDTIAKRLMANKGSIMRGSTGET | soluble
MSHSEAGQAASVRRVLAVIPARGGSKGVPAKNLLPVGGVPLVARAVRECRATRLVTDVVVSTDDHAIAAAAREAGAEVVLRPAAIAGDTATSEAAVLHAMDTHEALHGAAVDVVLLVQCTSPFIVREDVDGVVHAIVGKGADTALTVAPFHGFVWRDADDAPGALGAERAAVEGGTDTLVTGTATSGGYGINHDKSFRPRRQDRPQDLLETGAVYGMDATGFREARHRFFGRTELVRTDPARVLEIDDPHDLARARALAPLFDANRPGALPTAEDIDAVVLDFDGTQTDDRVLIDSDGREFVSVHRGDGLGIAALRKSGLTMLILSTEQNPVVAARARKLKIPVLHGIDRKDLALKQWCEEQGIAPERVLYVGNDVNDLPCFALVGWPVAVASAHDVVRGAARAVTTVPGGDGAIREIASWILGPSLDSLDKLEHHHHHH | not soluble
MPWIAKRRGHDADFFIMRIPRIYHPELLTSGTQISLCEDAANHIGRVLRMGPGQALQLFDGSNQVFDAEIISASKKSVEVQVMKGEIDDRESPLHIHLGQVMSRGEKMEFTIQKSIELGVSLITPLFSERCGVKLDSERLNKKRQQWQKIAIAACEQCGRNRVPEIRPPMALEAWCAEQDSGLKLNLHPRAHASINTLPLPVERVRLLIGPEGGLSADEIAMTARYQFTDILLGPRVLRTETTALTAITALQVRFGDLG | not soluble
MARPQSKKKQTQVARRPRRRGRWVPPSRLIAGRDFPEFLRQAVLLSGSLRQAARKLRVSYSTLRGWLGRRCEEPPEGERDLLAGHVAAIRTELDVAAEHLAIVRGQLDALERGDDG | not soluble
MSTFRLITGGIGTGKTLWTVEQLFKLKNLTPDRLVYTDITGIKHTGVTVVPPDFDWRNVEDNSLIIFDEVQYKELFSRHNSKRDKQILDLTTMRKRGIEIWCITQRARFLNQDVLGLVNEHIHLEKTGDKTARVYIWHEAETNITKTKKMFPFEKYVWQHPTDLYGFYESIKPDA | not soluble
MILGTPKADWLAEFPRLADLIALRPSEWFNPAIAPSAEALADVGLGAADVADASARLQRFAPLIARLFPETAASGGIIESDLVEVATFHDALRQHYAAELPGRLWLKRDSHLPISGSIKARGGIYEVLAHAERLALEHGLVGLDDDYSRLAEADCRAFFARHRIAVGSTGNLGLSIGIIGAALGFQASVHMSADARQWKKDKLRAHGVTVVEYASDYSVAVEQGRREAAGDPYTHFVDDENSRDLFLGYAVAAERLRGQLDAAGIRVDSEHPLFVHLPCGVGGGPGGVAFGLKLAFGDAVHCLFAEPTHSPCMFLGVYTGRHEQVSVQDFGIDNRTAADGLAVGRPSGFVGRAMQRLLDGYYTVDDDELFRLLALLERSQGIRLEPSALAGATGIARVTREPQGYRERMGLTSARLANATHLVWATGGGMVPETEMRAYLERGRSLL | not soluble
NRRIVARLIGLGDSIDAIIKNDLSHPIVVDGNDEIGRLSEKLIEYGEKVQEIQRTNALSLINNTTASLITSDLNGVVESANLSARKLLKLGEVNESYPIWEYFPESCREQLKKVFDGSHLWIELGKIHVTLSLGDEKPKYVRFDIRPFAHGAEYKLIMTITDVTHQEMTTRTLESRVLEKTQDLLLKNQQLENEIEERIRTEDNLKKTQDELIQAAKMAVVGQTMTSLAHELNQPLNAMSTYLYSARMFLEQESPEKVGESITHIEGLATRMSKIINSLRQFARKPEGEREVKFVSVHEVAEQASTIVNTRAKRQQIIIENQLPDDVKVQGDMLALEQVFINVLVNSCDALMESTRDEQKRIQMALVERTSQTTLIAISDNGIGFGEEIVQRIFQPFVSTKEVGLGLGMNICKSLIEKHKGSIYLASSLEKGAMVVLELPNEQ | not soluble
MSNHIDRDVINALIAGHFADPFSVLGMHRTDAGLEVRALLPDATDVWVIEPKTGRKVGKLECLDSRGFFSGVLPRRKNAFRYQLAVTWHGQQNLIDDPYRFGPLLQ | not soluble
GPGSSLMFSRPPSKLSGAPTREDLDEIIAEEVREWVAKMVGVKHNADVWSMPNFVDALRSGVLLHVLLQKMESPPVSDEDLKLPKRTTGFFVRDNVATFLTTAKSRYDLVDAQLFTVSDLVDGKNDRQVVTCLMSIARIAYSAGAIK | not soluble
LSAGALKATASQQDKPESQYGLAGQLQAAAGQQGVTAQQQTRAEAAQQAQLPLQLTKELANEQVAEKVQMMMSKNLKNLDIRLDPPELGRMQIRMTMNNDLANVHFTVTNPQARDIIEQTLPRLREMLAQQGMQLADSSVQQQS | not soluble
MEQFLDNIKDLEVTTVVRAQEALDKKETATFFIGRKTCPYCRKFAGTLSGVVAETKAHIYFINSEEPSQLNDLQAFRSRYGIPTVPGFVHITDGQINVRCDSSMSAQEIKDFAGL | soluble
MPKRRLQTTLSEEAFRIIEKFKPDYGGINEVIEAALKLLNREDRNLSEDDILLIRLIRDLDFTGCGRSQYMHLICGDIEKAVKESMMETAVEWFLKKPFAEIELEEFLETVKRGWKVLNRVDYVEITKGDGWIQIFCEHTMRRREVSEFLAMHILNIYEKYYKGEWDVVKSISTNGFTLKFYRRV | not soluble
MSLLLGVENGRITQLGDAELLAGELDISVKIHDYTGKIICPGFVDTHVHYPQLAIIGSYGESLLHWLENYAFDEEKKFNDADHSLKTANHFLDELLRCGTTTAQVFGTVHPESVEGFFTAAEHRDLRMICGKVLMDRNGPLGLLDTPETSYVDSKNLIERWHGRSRLRYAVSPRFAPTSTPDQLATARQLLREYPGTHLQTHLSEDQEEIKWVKSLFPHCKNYLDIYKRAGLLGKRSTFAHCLHLTEADWEMLEHEGCSVAFCPSSNLFLGSGLFDLPRPQFANVKVGIGTDVGAGTSLSMLQTIADAYKTQRLAGNDLSPLSGLYMATLGGAKSLDCDADIGNFKIGKEADFTVLDPESTPLMSYRMQNCKSLEERLAVIVLLGDDRAILATYANGRCVHDRDIDEESEGHHHHHH | soluble
GMSEPYGKAFSLMRAEAEPAWRAYTHHAFVEGLKAGTLPREAFLHYLQQDYVFLIHFSRAWALAVVKSETHSEMLAAVGTVNALVAEEMQLHIGICEASGISQEALFATRERAENLAYTRFVLEAGYSGDLLDLLAALAPCVMGYGEIGKRLTAEATSTLYGDWIDTYGGDDYQAACKAVGTLLDDALERRLGAEFTSSPRWSRLCQTFHTATELEVGFWQMGLTP | soluble
MGSDKIHHHHHHMKILIVDDEYRKVEEIFNVLADAGISCAGVKHETTAQAARILLRRQDYDLLIIDLHLPAAIGGKPDNEGGITFLDMIRLDEKVKLPASVLFITGREELIESAYTKVIERGAILCQYHSDSDEWKKILIGRAKYDSQRLARDEQVDVVIVTALRNPELDAVLNLPYQWIQKRIKDDPLTYHYGKIPRIDSNISVVAVSPNRKGMPSSAAVASKLALMFKPKILLMVGICAGIRDKCSLGDIIVADPTWDWGSGKHGLDSNGSPVFHAAPRQVPLNSALSQVASDLANDESVMNGIRKGWSEEVPGGKLKVHIGPMASGASVIADDRSARLIAIQQHRELIAIEMEAYAVMAAAEYTSIPNLTAMIIKSVCDFADAEKNDTWQKYASYTSAAFADQLFRNSNISV | not soluble
MSLSHMGIFKFANGTIRVKDLEKSIEFYRDVIGMHELAREKGVVYFGCGADETFDIAIKEGGTGVEQFALQVADEEDIQYYEKKLTNLGISTQRMSNPEPGKKVALRFAAPSGHQLELALMEDRPHYLHPVAGHKGSRGIGILDADHITLHTKDVKGLAEFLQEALDFRVADVFEPAPGVWGAAWTHASDYHHDVALIGTSEDTTLHHFAFLVSGFEDMKRACDLLAQAGYKIETGPGRHGVGGNLFTYFLDPSGNRIELSAEMPRADRSVPHKVWPDFPPAFSTWGALPPESFAKGEGHHHHHH | soluble
MSFDPLPGTLENLLEQTSLKWIFVGGKGGVGKTTTSCSLAIQMSKVRSSVLLISTDPAHNLSDAFGTKFGKDARKVPGFDNLSAMEIDPNLSIQEMTEQADQQNPNNPLSGMMQDLAFTIPGIDEALAFAEILKQIKSMEFDCVIFDTAPTGHTLRFLNFPTVLEKALGKLGGLSSRFGPMINQMGSIMGVNANEQDLFGKMESMRANISEVNKQFKNPDLTTFVCVCISEFLSLYETERMIQELTSYEIDTHNIVVNQLLLDPNTTCPQCMARRKMQQKYLAQIEELYEDFHVVKVPQVPAEVRGTEALKSFSEMLVKPYVYPTSGKE | soluble
DVFQNKANVCWAKALVPVLKTAGIDMTTEQWNTVDYFETDKAHSAEIVLNQLCVRFFGLDLDSGLFSAPTVPLSIRNNHWDNSPSPNMYGLNKEVVRQLSRRYPQLPRAVATGRVYDMNTGTLRNYDPRINLVPVNRRLPHALVLHHNEHPQSDFSSFVSKLKGRTVLVVGEKLSVPGKMVDWLSDRPEATFRARLDLGIPGDVPKYDIIFVNVRTPYKYHHYQQCEDHAIKLSMLTKKACLHLNPGGTCVSIGYGYADRASESIIGAIARQFKFSRVCKPKSSLEETEVLFVFIGYDRKARTHNPYKLSSTLTNIYTGS | soluble
MDIMNEKVKKIIEFMDKNSIDAVLIAKNPNVYYISGASPLAGGYILITGESATLYVPELEYEMAKEESNIPVEKFKKMDEFYKALEGIKSLGIESSLPYGFIEELKKKANIKEFKKVDDVIRDMRIIKSEKEIKIIEKACEIADKAVMAAIEEITEGKKEREVAAKVEYLMKMNGAEKPAFDTIIASGYRSALPHGVASDKRIERGDLVVIDLGALYQHYNSDITRTIVVGSPNEKQKEIYEIVLEAQKKAVESAKPGITAKELDSIARNIIAEYGYGEYFNHSLGHGVGLEVHEWPRVSQYDETVLREGMVITIEPGIYIPKIGGVRIEDTILITKNGSKRLTKTERELI | soluble
